Experimental data as given in paper PMC3649970, “A Unique Spumavirus Gag N-terminal Domain with Functional Properties of Orthoretroviral Matrix and Capsid” (PLoS Pathogens, 2013).
Substitutions are numbered along the chain they refer to.

Experiments:
Settings in all cases: both partners purified
[1] = biological target: T1, PFV-Gag-NtD (amino terminal domain of Prototypic Foamy Virus Gag, residues 1-179) (Prototypic foamy virus (PFV), UniProt P14349 1-179); assay: ITC; ITC-200; 1 mM Env peptide in the syringe injected into 50 µM PFV-Gag-NtD in the cell; 25 mM Na-phosphate pH 6.55, 100 mM NaCl, 0.5 mM TCEP
T1 construct: source: E. coli Rosetta 2 (DE3), purified (Ni-NTA, Superdex 200 SEC); not shown: His-tag, N-terminal, kept
T1 sequence: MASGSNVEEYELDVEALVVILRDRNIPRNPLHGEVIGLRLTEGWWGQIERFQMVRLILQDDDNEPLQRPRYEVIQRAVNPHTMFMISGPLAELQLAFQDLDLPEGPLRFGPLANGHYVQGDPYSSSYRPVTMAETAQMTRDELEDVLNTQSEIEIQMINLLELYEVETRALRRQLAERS

[2] = biological target: T1, PFV-Gag-NtD (amino terminal domain of …); assay: AUC; sedimentation velocity of 75 µM equimolar mixtures of Gag-NtD and Env peptide, absorbance at 280 nm; bound fraction from the integrated absorbance of the 3S species in C(S)
[3] = biological target: T2, PFV-Gag-NtD V14S/V18S (Prototypic foamy virus (PFV), UniProt P14349 1-179, V14S | V18S); assay: as above
T2 construct: Gag of Prototypic Foamy Virus, residues 1-179 (Gag-NtD) with V14S and V18S
T2 sequence (looked up): T1 sequence with V14S, V18S

[4] = biological target: T3, PFV-Gag-NtD V14S/L21S (Prototypic foamy virus (PFV), UniProt P14349 1-179, V14S | L21S); assay: as above
T3 construct: Gag of Prototypic Foamy Virus, residues 1-179 (Gag-NtD) with V14S and L21S; also called Val14/Leu21 to serine
T3 sequence (looked up): T1 sequence with V14S, L21S

[5] = biological target: T4, PFV-Gag-NtD V18S/L21S (Prototypic foamy virus (PFV), UniProt P14349 1-179, V18S | L21S); assay: as above
T4 construct: Gag of Prototypic Foamy Virus, residues 1-179 (Gag-NtD) with V18S and L21S
T4 sequence (looked up): T1 sequence with V18S, L21S

[6] = biological target: T5, PFV-Gag-NtD N29Q (Prototypic foamy virus (PFV), UniProt P14349 1-179, N29Q); assay: as above
T5 construct: Gag of Prototypic Foamy Virus, residues 1-179 (Gag-NtD) with N29Q
T5 sequence (looked up): T1 sequence with N29Q

[7] = biological target: T6, PFV-Gag-NtD V18S (Prototypic foamy virus (PFV), UniProt P14349 1-179, V18S); assay: as above
T6 construct: Gag of Prototypic Foamy Virus, residues 1-179 (Gag-NtD) with V18S
T6 sequence (looked up): T1 sequence with V18S

[8] = biological target: T7, PFV-Gag-NtD L21S (Prototypic foamy virus (PFV), UniProt P14349 1-179, L21S); assay: as above
T7 construct: Gag of Prototypic Foamy Virus, residues 1-179 (Gag-NtD) with L21S
T7 sequence (looked up): T1 sequence with L21S

B1: PFV Env leader peptide residues 1-20 (peptide, UniProt P14351 1-20, looked up)
peptide: MAPPMTLQQWIIWKKMNKAH
notes: Envelope (Env) protein of Prototypic Foamy Virus, N-terminal leader peptide region, residues 1-20 (Met1 to His20); the text names M1, A2, P3, P4, M5, T6, L7, Q9, W10, W13, M16, A19, H20; also called Env_(1-20); Env(1-20); source: synthetic peptide, bought HPLC purified: Pepceuticals Ltd
For B1, the Ka [1] was 150000 M⁻¹, the “stoichiometry N” value [1] was 1 and the Ka [2] was 130000 M⁻¹. The binding result [3] was “binds”, the “fold reduction in binding against wt PFV-Gag-NtD” value [4] was roughly 20 fold and the binding result [5] was “binds”. The binding result [6] was “binds”, the “fold decrease of affinity against wt PFV-Gag-NtD” value [7] was 2 fold and the “fold decrease of affinity against wt PFV-Gag-NtD” value [8] was 5 fold.
